# Laboratory results published in publication doi:10.1101/2022.04.06.487319 (bioRxiv, 2022).
# Residue numbers refer to the chain shown, from its start. Names may count otherwise. “And” between values parts separate entries of the source, which are not always exact repeats. Equal entries are not always repeated.
# B1: MBP-Red1^733-819 (WT) (domain or fragment, Saccharomyces cerevisiae, UniProt P14291 733-819, looked up)
# chain: NTFTNKLQEQIYSSINHFSNELVRKISIINQELNKKILKELSEKYQKLFSELQDNFQNDTNEMLKFMGEIKDMMNLPEDQLVHAIRT
# B2: MBP-Red1^733-819/I743R (domain or fragment, Saccharomyces cerevisiae, UniProt P14291 733-819, looked up)
# chain: B1 chain with I11R
# B3: MBP-Red1^733-827/I743R (domain or fragment, Saccharomyces cerevisiae, UniProt P14291 733-827, looked up)
# chain: NTFTNKLQEQRYSSINHFSNELVRKISIINQELNKKILKELSEKYQKLFSELQDNFQNDTNEMLKFMGEIKDMMNLPEDQLVHAIRTRKFDNNKR
# B4: MBP-Red1^733-827 (coiled-coil, WT) (domain or fragment, Saccharomyces cerevisiae, UniProt P14291 733-827, looked up)
# chain: B3 chain with R11I
# B5: MBP-Red1 (340-362), wild-type closure motif (peptide, UniProt P14291 340-362, looked up)
# chain: FHNVNNIPKISEVQNFLVLDYIE
# B6: strep-Hop1 (full length, Hop1-Red1 complex from Hi5 cells) (natural protein, Saccharomyces cerevisiae, UniProt P20050 1-605, looked up)
# chain: MSNKQLVKPKTETKTEITTEQSQKLLQTMLTMSFGCLAFLRGLFPDDIFVDQRFVPEKVEKNYNKQNTSQNNSIKIKTLIRGKSAQADLLLDWLEKGVFKSIRLKCLKALSLGIFLEDPTDLLENYIFSFDYDEENNVNINVNLSGNKKGSKNADPENETISLLDSRRMVQQLMRRFIIITQSLEPLPQKKFLTMRLMFNDNVDEDYQPELFKDATFDKRATLKVPTNLDNDAIDVGTLNTKHHKVALSVLSAATSSMEKAGNTNFIRVDPFDLILQQQEENKLEESVPTKPQNFVTSQTTNVLGNLLNSSQASIQPTQFVSNNPVTGICSCECGLEVPKAATVLKTCKSCRKTLHGICYGNFLHSSIEKCFTCIFGPSLDTKWSKFQDLMMIRKVFRFLVRKKKGFPASITELIDSFINVEDQNNEVKERVAFALFVFFLDETLCLDNGGKPSQTIRYVTSSVLVDVKGIVIPNTRKQLNVNHEYKWHFTTSSPKAESFYQEVLPNSRKQVESWLQDITNLRKVYSEALSPSSTLQELDLNSSLPTQDPIISGQKRRRYDLDEYLEEDKSSVVNDTIKAKDFDESVPAKIRKISVSKKTLKSNW
# B7: Red1^I743R-MBP (Hop1-Red1 complex from Hi5 cells) (natural protein, Saccharomyces cerevisiae, UniProt P14291 1-827, looked up)
# chain: MEGLKKKIFGVCLKNDLAQTRNETKGIHYGLMTLETSKQLQEFLHLLVIKREVIQNFELLFHIINVAVKITDSNLPSDDIWHFILKLRFSSEINIDEDSKVLNYLLETGIAMENPVSWKCLAVISSILSSVPQSKKIITNLIETEHAKKIGQLFDNIQDLQQGNFLVEILSNCFKKSASNSKKVEKIPQLWQSRSKNKFFFENEFYPFSSKNGSLQTCQFLCNNFMSTLSFTGILRQVSYSGSETLKNLRIFKKKDDENSYFIQCIYNKIYLWLDEKAPLEFERKKIRITKNLKNKIQIKLRQPFHECVRTTADKTALLFNKTKGFQLEFEDEKLGETFFHNVNNIPKISEVQNFLVLDYIEEEPENEGEEEEQIGRADEQKEDEEEESLDELSTPMVYPIKSSIPHNHNEKVQLVTPDRSVSIRSDEWDLKSNTEDEEGNVLADLKISSTKETKRQTDYVHIDSEDQSPVVSAQMRKMRRESTKTLEILRQEFKDKDVQNKEDQSEQIQNPFVNTSSLVVGKSCLVNPKEKPNIDQTVVGITELKSNSSIKKRDINILDTIFGQPPSKKQKQFHKKEKKKQQKKLTNFKPIIDVPSQDKRNLRSNAPTKPKSIKVSKLRTDKKVTGEKSSPETAAEKVDDQTVRSNDEQAMSRATKEKCFPDVNEGKEITKDDAKVSLESKKNNETFVDSSVVEKHTPPDKDCNNCNITDILESTTVIDLQSPHGLSAPGQNTFTNKLQEQRYSSINHFSNELVRKISIINQELNKKILKELSEKYQKLFSELQDNFQNDTNEMLKFMGEIKDMMNLPEDQLVHAIRTRKFDNNKR
# Experiments:
# mass photometry = biological target: the molecule itself; assay: mass photometry
# SEC-MALS = biological target: the molecule itself; assay: SEC-MALS
# strep-Hop1 FL K593A = biological target: T1, strep-Hop1 FL K593A (Saccharomyces cerevisiae, UniProt P20050 1-605, K593A); assay: pull-down
# T1 sequence (looked up): B6 chain with K593A
# [1] = biological target: B7; assay: pull-down
# [2] = biological target: B7; assay: cross-linking
# [3] = biological target: B6; assay: mass photometry
binder,measurement,setting,value
B1,stoichiometry N,mass photometry,4
B2,stoichiometry N,mass photometry,4
B3,stoichiometry N,mass photometry,2
same,stoichiometry N,SEC-MALS,4
B4,stoichiometry N,mass photometry,2 and 4
B5,binding result,strep-Hop1 FL K593A,binds
B6,binding result,[1],binds
same,binding result,[2],binds
B7,stoichiometry N,[3],1
